Paper PMC7243271
Where two headings read alike, the source gives them in different places.

Assays:
Assay in all cases: SEC-MALS
[1] = biological target: Nup358-KLC2-fusion protein (human | mouse) (UniProt P49792)
[2] = biological target: Nup358-KLC2-fusion protein (human | mouse) (UniProt P49792); remark: listed apart in the source
[3] = biological target: Nup358-min (residues 2147–2240 of human Nup358) (human) (UniProt P49792)
[4] = biological target: Nup358/W2224A/D2225A-KLC2-fusion protein (human | mouse) (UniProt P49792)

Measured: stoichiometry N

BicD2-CTD (residues 715–804 of human BicD2) (domain or fragment)
1: all assays above
